# ± gives the uncertainty stated by the source.
# Assay: amyloid nucleation score (Sup35N fusion, yeast selection) (log enrichment); library NNK3; higher = more nucleation; inactive = no reads after selection
# How it was run: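 Sup35N fusions to peptides of 20 random codons were expressed in psi-negative yeast, induced 24 hours with 100 μM copper sulfate, and grown 7 days at 30°C on medium lacking adenine and uracil. Input and output plasmid inserts were sequenced by Illumina. The nucleation score is the DiMSum log enrichment of output over input reads, centred on the mode score of non-aggregating sequences. Sequences with under 100 input reads were excluded.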
row,Substance,amyloid nucleation score
1,YRVKPFKWKYARRRLVIRWV,inactive
2,CVVPHPLSLPSD,inactive
3,KGMDMVI,inactive
4,ELGPYLNSLVAHFSRLY,inactive
5,TYTSESWVHLVKYGSLNELE,inactive
6,GVLCMWHLCFDVCDGKIIGG,1.74 ± 0.078
7,RDFRKSIYTCLEYYWHMVVT,inactive
8,EFGPVTPGSEPQALLCTRRL,inactive
9,NGVLSSA,inactive
10,MSSRPGFNT,inactive
11,DWNISLNLQDIGRRSLPIFA,inactive
12,IGTLSNLLTKGCKYYGVNIC,inactive
13,TYEST,inactive
14,TLSCSDFTVLGTCDAVEGIN,inactive
15,DHAIM,1.46 ± 0.14
16,DDRDSNSVTLDNSWSYSITV,inactive
17,NGPVGN,inactive
18,CNHVSLTMILVRVLNMFF,0.968 ± 0.23
19,FCGAYLVVIAEFL,inactive
20,MICESFVSLLLVKCELLGTA,inactive
21,RFSWNENVGVDGQHLPEVER,inactive
22,NCGSYSKSDN,inactive
23,TPRFMVGAVATEGAHIFLRV,inactive

row,Substance,amyloid nucleation score
1,SMTWSRIAFEIMWNSVCRLI,inactive
2,SVVQIHAERYE,inactive
3,VGVFV,inactive
4,HGRAYSRNT,inactive
5,VGELIGLGSLWGMEINY,inactive
6,YMHGVWRWVVYRIFLYGRQA,inactive
7,VKRGLVCETSLCRYFFLFGQ,1.35 ± 0.089
8,LTYTHLCEPSEFR,inactive
9,GNEWRWWVLRNLLSCFSIP,inactive
10,RRTDGATEACISTSGPEYIV,inactive
11,SCTLQNFRGLKNSFYGYYAT,inactive
12,GDSLWIFTAGIDCSYRLIFD,inactive
13,YIYICLVFMSRCTKLYIELG,inactive
14,RKGFKAIGY,inactive
15,ILVTASTAYLDVRVKWIQTF,inactive
16,VIFLGAYHNSLLNRAMHSGH,1.45 ± 0.12
17,FHWYFLCLAFLG,0.398 ± 0.3
18,VCSVFLLLCANRLRVGGNYI,inactive
19,LVRIMYL,inactive
20,NSWRHKMMQMKSYHSNVCIW,inactive
21,RTLFYFLDDSQFVLV,inactive
22,SNLCGFCRSHVIKVMLLLSA,inactive
23,FLPQFDYVQIMVPCYCLEVV,inactive

row,Substance,amyloid nucleation score
1,EIVVYFEFLCYFVLEVLKSL,inactive
2,DSSLIAGPHVVCSWGLKNFS,inactive
3,ITFIM,inactive
4,MWRPSHTYCLSNGKVECREC,inactive
5,TYGNENSSLILSCTCYIMLS,2.41 ± 0.082
6,PVNYVYLTRFH,inactive
7,YIVST,inactive
8,YAMCIISIAFPLTL,inactive
9,IKPSAS,inactive
10,RMILTSQLLQKENGLSVTIN,0.853 ± 0.2
11,ANVDTIDFASAVILF,inactive
12,QYDLDWFIGRSNARDGLTDW,inactive
13,SVDEVRCTCVYSCGVWPGGC,inactive
14,GVKVSDMSPDRDNLWFSRCS,inactive
15,LSKQIVIRINSNNCNGSVFF,2.7 ± 0.049
16,RWNSISI,inactive
17,LRFTRRFYSRGWVRW,inactive
18,SCRDDLLVMSKVTLITMT,inactive
19,LYIWSIGLLEQLGNGMQASR,inactive
20,TYFRHYRKRSRSTSDLYLRL,inactive
21,ATGLWGICGWTPDTNHLQVM,inactive
22,ISILLIFPCEAVIFLPF,inactive
23,AINVRRSLTTYPNFLDTVRS,inactive

row,Substance,amyloid nucleation score
1,FAILNFGMSSIIFVCLTCAN,inactive
2,YYLCLYLSPLLL,1.28 ± 0.11
3,LTLLCSDECWVFMSMGDRTF,inactive
4,FRMPDGELSGT,inactive
5,FRLKY,0.12 ± 0.68
6,FGSPYWLAYIV,inactive
7,HWAVRH,0.212 ± 0.42
8,RYMFWQWRGEL,0.958 ± 0.17
9,SFRSSSYEDNCLLVVDNVRT,inactive
10,GKVNSWIGVRMKLLWSGRFG,inactive
11,WQHSRSLDTSACCPT,inactive
12,ISPGRAGQVVSLAGHSYQAL,inactive
13,RMVRRDRNKYSILLGLVMSN,inactive
14,STSYYPDVRVATRSSYWHFT,1.14 ± 0.18
15,TVSTE,inactive
16,ADLRIRSSSCRPSADINFG,inactive
17,VVWNMYKFKACWYRDVTPLF,inactive
18,RGHNRRMYTWRVCRPSHHCK,inactive
19,ENYLKVCVASVCPWLLHVRS,-0.079 ± 0.48
20,SCSLCWPIHRDFHMCTSSVC,inactive
21,RKCLMMCDYCITLNM,2.29 ± 0.06
22,DGPTRLNLFNSLFVSLKRMY,1.58 ± 0.12
23,TLCMVQRSRVVSLLSVGRIL,-0.223 ± 0.55

row,Substance,amyloid nucleation score
1,MFGFRNITK,0.583 ± 0.2
2,YVEKVYYCSVRLRYAFLDFD,inactive
3,LSSFHHRQVLHRAVAKPFTA,0.245 ± 0.75
4,SLATSYVNFILCRLLKFDHT,inactive
5,VDNCYDVITSLILSKYVLTL,inactive
6,NGYPHLIQHYLVNAG,inactive
7,LFEHLRW,0.685 ± 0.2
8,DIPSVGQKRCSHGDRYNSAK,inactive
9,NQVRVSKSVNRAIDASPEWD,inactive
10,PTKMCCLFTVIF,2.13 ± 0.069
11,FYSIFN,inactive
12,FKKSLYVLSDFSVLYSMCSW,inactive
13,SKVIAPWYEEMRWWRSTGAV,inactive
14,HQKALTAVMWFNNRRGGLFG,inactive
15,SFDNSWVVGAIELNDFDSWH,inactive
16,SEFGPIEATSAHMFESPFKG,inactive
17,SGSDILISYLLFCYNACLTF,inactive
18,DIFCCWTDISDLF,inactive
19,CVSNISSFGKLEFTYVIEVW,inactive
20,WHCLTVFILKYEVGFCSSLR,inactive
21,RYYLFLVPSGVWGYVVLRDS,0.656 ± 0.21
22,GIRVHGNFYMNSGSSTGG,1.49 ± 0.073
23,FFLAGLFCAISV,inactive

row,Substance,amyloid nucleation score
1,AIERIFHCGETVIFMTGHLL,inactive
2,NRTRCGDYILGCQSSFDTCH,inactive
3,TLGDGRPLCLREEWEGPVTC,inactive
4,TPWSYASLVLSVQCFGRLIM,inactive
5,VIRVTWGYNWNNYVKHVYRS,0.35 ± 0.55
6,FVSWWNRSYVCVWIKLMNWR,inactive
7,VCLKVQWDYCIRLWVGMSYD,inactive
8,FWVRYGPNSQGVGPWTMHRW,0.189 ± 0.74
9,AVDQGGLAYRGRRC,inactive
10,ERQFMFYKVTVVIPTSHLCS,inactive
11,QRDVDLMVSIGTPTSNRYET,inactive
12,GRRRIRNCVSRACLMYIQHV,0.434 ± 0.23
13,DSSKVGFSALVNVSTIA,inactive
14,EHYFSTSIVGCGFFIWWCWG,inactive
15,SYAPKMSIRGMNFKTVMVFL,2.37 ± 0.076
16,RVNNGT,inactive
17,GMALPRVIVFIGNRITTNLG,2.31 ± 0.065
18,YRNNAFPSEMHPIGRLEYAV,0.456 ± 0.15
19,LETFI,inactive
20,SGSRLGHCSSLTMKSSLSVD,1.06 ± 0.17
21,GDFSSCL,inactive
22,CLFSGEGLARKCYSDNS,inactive
23,GPEHQSVPRAFHQLRYLIYN,inactive

row,Substance,amyloid nucleation score
1,DHWLLQYERRCKLGGFGY,inactive
2,YNCRTLNCNYQVYYFVFLSD,3.15 ± 0.062
3,GLGMGAPQSILWVGDLLMTN,inactive
4,GFLDDYIIMDQLLHEFVKRF,inactive
5,SPFCYRR,inactive
6,VIDDHMFQRKRQMVLKKQLN,inactive
7,IVVCFRSRRFCSSRYHS,inactive
8,RRFCRYVYEMG,inactive
9,DGAVFRFNMGHYKYSLVEVM,inactive
10,KGITYLNVRFKNRCPMVFGG,inactive
11,PCPLRTTVW,inactive
12,VTLMILKGVFKFM,-0.136 ± 1
13,SREQIVCQVRSITLAYKNSV,inactive
14,LLTSLDPDYSSPWCYSVDIC,inactive
15,LDSIPSMSTVLLMSASGCND,inactive
16,NMLKAASKTVKG,inactive
17,AYCPKTALEVY,inactive
18,AYRVVQTGDLHGRCAWIVNV,0.088 ± 0.88
19,MWVPYSAFRMDQEFGFYGIT,0.057 ± 0.24
20,LNVVKNYIGLVRRHIIRVHF,inactive
21,GVVLSYNGTFWRVLINHHMC,inactive
